In article PMC9768917:

Assays:
[1] = molecular target: HALO-FhM28B (E413M) (Fasciola hepatica); assay: SEC; final purification step on a Superose 6 column, 20 mM MOPS, 150 mM NaCl, pH 7.4; elution peak compared with the expected dimeric mass
[2] = molecular target: HALO-FhM28B (Fasciola hepatica M28B metalloprotease, wild type, with N-terminal His-Strep-HALO tag) (Fasciola hepatica); assay: as above

Row | Substance | stoichiometry N [1] | stoichiometry N [2]
1 | HALO-FhM28B (E413M) (enzyme) | 2 | –
2 | HALO-FhM28B (Fasciola hepatica M28B metalloprotease, wild type, with N-terminal His-Strep-HALO tag) (enzyme) | – | 2
